Values of other authors in article PMC3617488 (European journal of nuclear medicine and molecular imaging, 2011).

What was measured:
[1] = human

Substance	Half-life of the parent peptide [1]	Plasma half-life (comparison with exendin-4)
exendin-4: subcutaneously administered peptide drug used in the treatment of type 2 diabetes	9.57 h	–
AC3174: exendin-4 analog which contains a leucine for methionine substitution	–	shorter plasma half-life
